The target in the assay is oligomeric amyloid-β 1–42 (UniProt P05067). Kind of assay: ELISA; solid phase binding assay: 96-well plate coated with 100 nM oAβ1-42 in PBS overnight at 4 °C, blocked with 4% BSA; purified Fc or sTREM2-Fc proteins in PBST with 0.5% BSA, 30 min at 37 °C; detected with biotinylated anti-Fc antibody, avidin-HRP, TMB, read at 620 nm. (In general: ELISA stands for enzyme-linked immunosorbent assay.)

Turning to “soluble TREM2-Fc (human TREM2 extracellular domain, amino acids 1–171, fused to the Fc region of human IgG1) (from UniProt Q9NZC2 19-171) (Fc fusion)”, the Kd is 86.5 nM.

What is called Kd is a measure of binding affinity in units of concentration. A higher Kd goes with weaker binding.

Values taken from paper PMC5870375.
